B1: Melanoma-associated antigen 8 (Homo sapiens), P43361 (parent)
chain: MLLGQKSQRYKAEEGLQAQGEAPGLMDVQIPTAEEQKAASSSSTLIMGTLEEVTDSGSPSPPQSPEGASSSLTVTDSTLWSQSDEGSSSNEEEGPSTSPDPAHLESLFREALDEKVAELVRFLLRKYQIKEPVTKAEMLESVIKNYKNHFPDIFSKASECMQVIFGIDVKEVDPAGHSYILVTCLGLSYDGLLGDDQSTPKTGLLIIVLGMILMEGSRAPEEAIWEALSVMGLYDGREHSVYWKLRKLLTQEWVQENYLEYRQAPGSDPVRYEFLWGPRALAETSYVKVLEHVVRVNARVRISYPSLHEEALGEEKGV
B2: Isoform 1 of Cyclin-dependent kinase 2-interacting protein (Homo sapiens), Q9BW66-1 (parent)
chain: MEAKTLGTVTPRKPVLSVSARKIKDNAADWHNLILKWETLNDAGFTTANNIANLKISLLNKDKIELDSSSPASKENEEKVCLEYNEELEKLCEELQATLDGLTKIQVKMEKLSSTTKGICELENYHYGEESKRPPLFHTWPTTHFYEVSHKLLEMYRKELLLKRTVAKELAHTGDPDLTLSYLSMWLHQPYVESDSRLHLESMLLETGHRAL
partner: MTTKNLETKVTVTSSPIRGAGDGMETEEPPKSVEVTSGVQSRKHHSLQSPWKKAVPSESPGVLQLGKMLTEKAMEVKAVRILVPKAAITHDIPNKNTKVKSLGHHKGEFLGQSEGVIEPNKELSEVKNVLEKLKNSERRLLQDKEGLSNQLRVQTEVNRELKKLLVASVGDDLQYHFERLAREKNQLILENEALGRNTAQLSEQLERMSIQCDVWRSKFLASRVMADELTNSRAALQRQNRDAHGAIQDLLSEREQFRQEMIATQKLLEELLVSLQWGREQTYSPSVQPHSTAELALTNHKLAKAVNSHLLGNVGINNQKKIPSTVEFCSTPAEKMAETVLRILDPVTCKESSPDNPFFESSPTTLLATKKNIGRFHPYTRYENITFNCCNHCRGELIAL
B3: Protein FAM9B (Homo sapiens), Q8IZU0 (parent)
chain: MAAWGKKHAGKDPVRDECEERNRFTETREEDVTDEHGEREPFAETDEHTGANTKKPEDTAEDLTAKRKRMKMDKTCSKTKNKSKHALRKKQLKRQKRDYIHSLKLLNVLEEYITDEQKEEEEEEGEEEELIRIFQEQQKKWQQYRSVRRERLKEMKLLRDQFVKALEDFEDLCDRVFSDEDSELDN
partner: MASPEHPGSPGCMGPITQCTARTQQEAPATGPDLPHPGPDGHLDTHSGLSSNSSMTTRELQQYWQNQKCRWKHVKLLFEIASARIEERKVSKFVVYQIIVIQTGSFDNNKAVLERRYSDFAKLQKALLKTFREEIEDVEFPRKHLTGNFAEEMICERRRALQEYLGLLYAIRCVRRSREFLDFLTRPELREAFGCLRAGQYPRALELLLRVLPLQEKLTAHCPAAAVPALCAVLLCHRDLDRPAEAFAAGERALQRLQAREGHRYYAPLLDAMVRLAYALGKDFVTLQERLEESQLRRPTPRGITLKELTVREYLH
B4: Flavin-containing monooxygenase 3 (Homo sapiens), P31513 (parent)
chain: MGKKVAIIGAGVSGLASIRSCLEEGLEPTCFEKSNDIGGLWKFSDHAEEGRASIYKSVFSNSSKEMMCFPDFPFPDDFPNFMHNSKIQEYIIAFAKEKNLLKYIQFKTFVSSVNKHPDFATTGQWDVTTERDGKKESAVFDAVMVCSGHHVYPNLPKESFPGLNHFKGKCFHSRDYKEPGVFNGKRVLVVGLGNSGCDIATELSRTAEQVMISSRSGSWVMSRVWDNGYPWDMLLVTRFGTFLKNNLPTAISDWLYVKQMNARFKHENYGLMPLNGVLRKEPVFNDELPASILCGIVSVKPNVKEFTETSAIFEDGTIFEGIDCVIFATGYSFAYPFLDESIIKSRNNEIILFKGVFPPLLEKSTIAVIGFVQSLGAAIPTVDLQSRWAAQVIKGTCTLPSMEDMMNDINEKMEKKRKWFGKSETIQTDYIVYMDELSSFIGAKPNIPWLFLTDPKLAMEVYFGPCSPYQFRLVGPGQWPGARNAILTQWDRSLKPMQTRVVGRLQKPCFFFHWLKLFAIPILLIAVFLVLT
partner: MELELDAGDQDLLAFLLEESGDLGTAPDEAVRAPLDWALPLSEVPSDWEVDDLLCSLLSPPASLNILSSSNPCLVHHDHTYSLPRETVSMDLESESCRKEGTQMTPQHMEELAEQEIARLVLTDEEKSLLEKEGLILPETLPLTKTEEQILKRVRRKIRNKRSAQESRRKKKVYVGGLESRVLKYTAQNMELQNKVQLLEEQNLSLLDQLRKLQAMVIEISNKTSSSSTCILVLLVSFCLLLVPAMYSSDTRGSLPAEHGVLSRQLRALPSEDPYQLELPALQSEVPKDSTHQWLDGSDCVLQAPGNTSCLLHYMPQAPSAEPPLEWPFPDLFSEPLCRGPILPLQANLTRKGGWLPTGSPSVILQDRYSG
B5: Protein boule-like (Homo sapiens), Q8N9W6 (parent)
chain: MQTDSLSPSPNPVSPVPLNNPTSAPRYGTVIPNRIFVGGIDFKTNESDLRKFFSQYGSVKEVKIVNDRAGVSKGYGFVTFETQEDAQKILQEAEKLNYKDKKLNIGPAIRKQQVGIPRSSIMPAAGTMYLTTSTGYPYTYHNGVAYFHTPEVTSVPPPWPSRSVCSSPVMVAQPIYQQPAYHYQATTQYLPGQWQWSVPQPSASSAPFLYLQPSEVIYQPVEIAQDGGCVPPPLSLMETSVPEPYSDHGVQATYHQVYAPSAITMPAPVMQPEPIKTVWSIHY
partner: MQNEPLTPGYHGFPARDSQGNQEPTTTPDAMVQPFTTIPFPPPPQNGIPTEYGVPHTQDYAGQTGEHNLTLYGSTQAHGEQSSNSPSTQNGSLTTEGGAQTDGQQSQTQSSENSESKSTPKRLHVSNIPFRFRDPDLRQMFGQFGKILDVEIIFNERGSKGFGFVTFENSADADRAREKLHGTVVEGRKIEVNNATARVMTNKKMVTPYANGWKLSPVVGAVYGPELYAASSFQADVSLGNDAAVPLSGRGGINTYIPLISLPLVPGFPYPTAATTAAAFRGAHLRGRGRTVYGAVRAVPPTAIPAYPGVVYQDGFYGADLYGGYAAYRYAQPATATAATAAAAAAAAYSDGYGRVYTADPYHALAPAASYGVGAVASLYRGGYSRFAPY
B6: Amyloid beta A4 precursor protein-binding family B member 1-interacting protein (Homo sapiens), Q7Z5R6-2 (parent)
chain: MGESSEDIDQMFSTLLGEMDLLTQSLGVDTLPPPDPNPPRAEFNYSVGFKDLNESLNALEDQDLDALMADLVADISEAEQRTIQAQKESLQNQHHSASLQASIFSGAASLGYGTNVAATGISQYEDDLPPPPADPVLDLPLPPPPPEPLSQVSMWDQRWQDHQPLLPITDVP
B7: Coiled-coil domain-containing protein 172 (Homo sapiens), P0C7W6 (parent)
chain: MSLESLFQHIIFTEHQAEESRRLMREVRSEITRCREKIKKATEELNEEKIKLESKVQQFFEKSFFLQLLKAHENALEKQYSEITNHRNMLLQTFEAIKKQMIEEEDKFIKEITDFNNDYEITKKRELLMKENVKIEISDLENQANMLKSEMKSMEHDSSQLNELQKQKSELIQELFTLQRKLKVFEDEENESICTTKYLEAEKIKISEKPQNDTECLRLKKELELYKEDDMESVYEALQTEIEFLELTLAQKDLQESK
partner: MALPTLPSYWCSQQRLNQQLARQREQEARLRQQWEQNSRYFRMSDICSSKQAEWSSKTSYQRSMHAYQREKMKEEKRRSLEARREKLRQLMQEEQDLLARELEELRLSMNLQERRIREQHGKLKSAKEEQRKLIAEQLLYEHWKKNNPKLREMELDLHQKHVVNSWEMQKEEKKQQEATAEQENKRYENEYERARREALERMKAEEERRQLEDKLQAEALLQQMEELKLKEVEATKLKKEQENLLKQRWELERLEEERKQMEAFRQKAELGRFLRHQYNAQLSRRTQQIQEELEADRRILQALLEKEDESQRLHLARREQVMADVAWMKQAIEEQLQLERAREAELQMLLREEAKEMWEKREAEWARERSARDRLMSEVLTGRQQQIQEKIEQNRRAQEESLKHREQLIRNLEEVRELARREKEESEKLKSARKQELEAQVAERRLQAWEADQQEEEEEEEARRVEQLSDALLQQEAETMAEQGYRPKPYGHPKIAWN
B8: Embryonal Fyn-associated substrate (Homo sapiens), O43281 (parent)
chain: MAIATSTQLARALYDNTAESPQELSFRRGDVLRVLQREGAGGLDGWCLCSLHGQQGIVPANRVKLLPAGPAPKPSLSPASPAQPGSPYPAPDHSNEDQEVYVVPPPARPCPTSGPPAGPCPPSPDLIYKIPRASGTQLAAPRDALEVYDVPPTALRVPSSGPYDCPASFSHPLTRVAPQPPGEDDAPYDVPLTPKPPAELEPDLEWEGGREPGPPIYAAPSNLKRASALLNLYEAPEELLADGEGGGTDEGIYDVPLLGPEAPPSPEPPGALASHDQDTLAQLLARSPPPPHRPRLPSAESLSRRPLPALPVPEAPSPSPVPSPAPGRKGSIQDRPLPPPPPRLPGYGGPKVEGDPEGREMEDDPAGHHNEYEGIPMAEEYDYVHLKGMDKAQGSRPPDQACTGDPELPERGMPAPQEALSPGEPLVVSTGDLQLLYFYAGQCQSHYSALQAAVAALMSSTQANQPPRLFVPHSKRVVVAAHRLVFVGDTLGRLAASAPLRAQVRAAGTALGQALRATVLAVKGAALGYPSSPAIQEMVQCVTELAGQALQFTTLLTSLAP
B9: Keratin-associated protein 26-1 (Homo sapiens), Q6PEX3 (parent)
chain: MSCPNYCSGNSNSGSLRTSRHIPLTSIDLCPTSVSCGDVLYLPTSSQDHTWVTDNCQETCGEPTSCQPVHCETGNLETSCGSSTAYYVPRPCQGSSFLPASFFSSSCLPVSCRPQRYVSSGCRPLRPLLNSYQPIGDCVPNAYRPQFCLSKSCQPQNLLTSGCQPSSCLAYRPQSLHVVSSSLRPLGPLFSGCQPLTHVFSTCRPSCSGL
B10: Putative RNA-binding protein Luc7-like 2 (Homo sapiens), Q9Y383 (parent)
chain: MSAQAQMRAMLDQLMGTSRDGDTTRQRIKFSDDRVCKSHLLNCCPHDVLSGTRMDLGECLKVHDLALRADYEIASKEQDFFFELDAMDHLQSFIADCDRRTEVAKKRLAETQEEISAEVAAKAERVHELNEEIGKLLAKVEQLGAEGNVEESQKVMDEVEKARAKKREAEEVYRNSMPASSFQQQKLRVCEVCSAYLGLHDNDRRLADHFGGKLHLGFIEIREKLEELKRVVAEKQEKRNQERLKRREEREREEREKLRRSRSHSKNPKRSRSREHRRHRSRSMSRERKRRTRSKSREKRHRHRSRSSSRSRSRSHQRSRHSSRDRSRERSKRRSSKERFRDQDLASCDRDRSSRDRSPRDRDRKDKKRSYESANGRSEDRRSSEEREAGEI

Variants of: B1
Settings: with bex5_human BEX5, Q5H9J7
bex5_human BEX5, Q5H9J7, sequence (Q5H9J7 whole entry): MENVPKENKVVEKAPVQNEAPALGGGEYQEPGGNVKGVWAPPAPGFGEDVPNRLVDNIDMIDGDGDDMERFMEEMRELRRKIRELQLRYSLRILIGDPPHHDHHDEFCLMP

effect of a mutation on the interaction	Variant
with no effect	R9C

Variants of: B2
Settings: with go45_human BLZF1, Q9H2G9

effect of a mutation on the interaction	Variant
with no effect	D177N

Variants of: B2
Settings: with go45_human BLZF1, Q9H2G9
Remark: another data set of the same source

effect of a mutation on the interaction	Variant
with no effect	R164H

Variants of: B3
Settings: with snx20_human SNX20, Q7Z614

effect of a mutation on the interaction	Variant
with no effect	R23H

Variants of: B4
Settings: with creb3_human CREB3, O43889

effect of a mutation on the interaction	Variant
with no effect	E158K
with no effect	G180V

Variants of: B5
Settings: with rfox2_human RBFOX2, O43251

effect of a mutation on the interaction	Variant
with no effect	M270I
with no effect	S9Y
with no effect	V78I

Variants of: B6
Settings: with dpy30_human DPY30, Q9C005
dpy30_human DPY30, Q9C005, sequence (Q9C005 whole entry): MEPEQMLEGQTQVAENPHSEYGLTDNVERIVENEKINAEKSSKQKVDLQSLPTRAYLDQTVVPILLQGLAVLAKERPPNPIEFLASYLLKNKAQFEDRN

effect of a mutation on the interaction	Variant
with no effect	D134N

Variants of: B7
Settings: with tchp_human TCHP

effect of a mutation on the interaction	Variant
with no effect	I10V

Variants of: B8
Settings: with blk_human BLK

effect of a mutation on the interaction	Variant
with no effect	S265F
with no effect	A140D

Variants of: B8
Settings: with nck2_human NCK2, O43639
nck2_human NCK2, O43639, sequence (O43639 whole entry): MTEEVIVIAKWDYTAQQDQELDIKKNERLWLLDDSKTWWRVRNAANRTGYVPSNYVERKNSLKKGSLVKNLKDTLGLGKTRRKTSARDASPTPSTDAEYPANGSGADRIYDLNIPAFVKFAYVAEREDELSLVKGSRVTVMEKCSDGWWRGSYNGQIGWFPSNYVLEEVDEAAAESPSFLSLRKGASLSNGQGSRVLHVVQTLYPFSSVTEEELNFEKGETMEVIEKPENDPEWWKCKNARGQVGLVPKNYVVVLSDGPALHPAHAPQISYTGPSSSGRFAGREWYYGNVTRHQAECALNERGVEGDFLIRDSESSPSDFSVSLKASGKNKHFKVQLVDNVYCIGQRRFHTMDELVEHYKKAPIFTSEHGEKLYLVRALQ

effect of a mutation on the interaction	Variant
with no effect	S265F
with no effect	A140D

Variants of: B8
Settings: with abi2_human ABI2, Q9NYB9
abi2_human ABI2, Q9NYB9, sequence (Q9NYB9 whole entry): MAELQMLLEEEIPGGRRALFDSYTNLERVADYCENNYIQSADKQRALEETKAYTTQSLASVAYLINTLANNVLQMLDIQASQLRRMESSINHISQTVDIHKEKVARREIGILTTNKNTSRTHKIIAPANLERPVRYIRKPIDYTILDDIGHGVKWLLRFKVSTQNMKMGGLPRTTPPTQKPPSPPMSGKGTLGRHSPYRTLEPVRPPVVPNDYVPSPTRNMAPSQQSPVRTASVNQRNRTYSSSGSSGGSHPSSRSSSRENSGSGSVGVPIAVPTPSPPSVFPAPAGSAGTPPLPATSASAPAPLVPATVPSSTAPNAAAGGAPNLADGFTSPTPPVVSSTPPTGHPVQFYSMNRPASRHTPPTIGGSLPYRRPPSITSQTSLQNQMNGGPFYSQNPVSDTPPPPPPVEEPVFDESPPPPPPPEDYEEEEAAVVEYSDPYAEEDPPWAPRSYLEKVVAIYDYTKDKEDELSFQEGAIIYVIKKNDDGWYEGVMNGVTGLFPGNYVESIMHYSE

effect of a mutation on the interaction	Variant
with no effect	S265F
with no effect	A140D

Variants of: B8
Settings: with fyn_human FYN

effect of a mutation on the interaction	Variant
with no effect	S265F
with no effect	A140D

Variants of: B9
Settings: with grn_human GRN

effect of a mutation on the interaction	Variant
disrupting interaction strength	S26Y

Variants of: B9
Settings: with ccnjl_human CCNJL

effect of a mutation on the interaction	Variant
with no effect	S26Y

Variants of: B10
Settings: with nfya_human NFYA

effect of a mutation on the interaction	Variant
with no effect	K368Q

Variants of: B10
Settings: with srsf6_human SRSF6, Q13247
srsf6_human SRSF6, Q13247, sequence (Q13247 whole entry, looked up): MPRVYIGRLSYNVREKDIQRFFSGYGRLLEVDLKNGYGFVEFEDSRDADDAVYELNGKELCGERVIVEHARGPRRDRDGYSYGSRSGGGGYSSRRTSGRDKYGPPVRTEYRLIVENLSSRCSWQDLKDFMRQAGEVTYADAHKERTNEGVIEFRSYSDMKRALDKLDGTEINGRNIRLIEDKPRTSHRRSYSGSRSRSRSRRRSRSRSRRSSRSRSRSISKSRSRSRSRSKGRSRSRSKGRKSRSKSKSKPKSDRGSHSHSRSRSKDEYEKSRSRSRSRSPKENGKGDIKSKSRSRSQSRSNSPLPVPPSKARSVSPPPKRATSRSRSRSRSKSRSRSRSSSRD

effect of a mutation on the interaction	Variant
with no effect	K368Q

Reference: IntAct's records for PubMed 31515488
